Data published in US20250084178A1 (ARCUS BIOSCIENCES, published 2025).

T1: human CD39 expressed on the cell surface (human, UniProt P49961 1-510)
T1 sequence: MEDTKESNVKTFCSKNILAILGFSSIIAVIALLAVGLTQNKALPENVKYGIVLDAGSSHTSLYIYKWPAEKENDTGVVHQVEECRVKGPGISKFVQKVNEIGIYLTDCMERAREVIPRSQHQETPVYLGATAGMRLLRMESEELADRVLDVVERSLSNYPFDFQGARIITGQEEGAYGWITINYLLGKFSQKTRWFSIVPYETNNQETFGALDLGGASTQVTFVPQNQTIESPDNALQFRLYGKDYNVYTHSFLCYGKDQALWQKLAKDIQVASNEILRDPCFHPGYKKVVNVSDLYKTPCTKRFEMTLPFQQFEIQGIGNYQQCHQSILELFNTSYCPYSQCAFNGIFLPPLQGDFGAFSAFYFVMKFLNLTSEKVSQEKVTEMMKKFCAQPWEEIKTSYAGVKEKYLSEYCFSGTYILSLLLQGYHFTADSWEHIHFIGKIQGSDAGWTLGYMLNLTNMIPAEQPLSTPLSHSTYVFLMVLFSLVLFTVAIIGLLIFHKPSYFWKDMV

T2: recombinant human CD39 (soluble) (human, UniProt P49961 38-478, limits assumed)
T2 sequence (looked up): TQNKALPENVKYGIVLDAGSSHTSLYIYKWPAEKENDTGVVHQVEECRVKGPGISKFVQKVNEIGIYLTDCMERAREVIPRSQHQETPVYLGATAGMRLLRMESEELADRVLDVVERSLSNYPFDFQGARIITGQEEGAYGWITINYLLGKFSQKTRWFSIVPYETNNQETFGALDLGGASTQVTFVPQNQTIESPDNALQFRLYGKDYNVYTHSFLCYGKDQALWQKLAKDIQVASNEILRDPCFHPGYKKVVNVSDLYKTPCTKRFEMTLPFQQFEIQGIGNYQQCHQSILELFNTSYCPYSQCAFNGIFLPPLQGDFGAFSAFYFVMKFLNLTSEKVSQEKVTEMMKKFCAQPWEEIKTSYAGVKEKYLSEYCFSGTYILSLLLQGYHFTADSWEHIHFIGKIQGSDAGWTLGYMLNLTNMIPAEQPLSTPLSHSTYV

T3: soluble His-tagged human CD39 ECD protein (human, UniProt P49961 38-478)
T3 construct: also called human CD39 ECD His-tagged antigen; Sino Biological Cat. No. 16020-H08B
T3 sequence: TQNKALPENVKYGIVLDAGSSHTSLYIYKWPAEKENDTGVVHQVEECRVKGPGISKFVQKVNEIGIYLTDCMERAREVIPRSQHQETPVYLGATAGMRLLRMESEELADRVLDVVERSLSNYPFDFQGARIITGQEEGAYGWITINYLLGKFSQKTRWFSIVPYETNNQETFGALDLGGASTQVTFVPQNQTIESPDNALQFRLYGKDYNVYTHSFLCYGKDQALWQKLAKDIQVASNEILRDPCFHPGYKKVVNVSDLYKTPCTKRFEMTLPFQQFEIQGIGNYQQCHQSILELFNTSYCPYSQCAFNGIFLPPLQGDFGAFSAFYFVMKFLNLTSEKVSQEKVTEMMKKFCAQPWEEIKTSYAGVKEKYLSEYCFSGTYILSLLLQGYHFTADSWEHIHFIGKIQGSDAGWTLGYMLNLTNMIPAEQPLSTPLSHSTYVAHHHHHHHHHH

B1: hu31.4_IGG1.AA (antibody, human IgG1, kappa, L234A L235A)
heavy: not shown
light: DIVLTQSPALAVSPGQRATITCRTQQTVDHYGTTYMNWYQQKPGQPPKLLIYLASSLASGVPARFSGSGSGTDFTLTINPVEADDTANYYCQQSRNLWTFGGGTKVEIKRTVAAPSVFIFPPSDEQLKSGTASVVCLLNNFYPREAKVQWKVDNALQSGNSQESVTEQDSKDSTYSLSSTLTLSKADYEKHKVYACEVTHQGLSSPVTKSFNRGEC
notes: humanized variant of antibody 31, human IgG1 L234A/L235A
B2: huBMK2_IGG1.AEASS (antibody, human IgG1, kappa, V domains shown)
VH: QVQLVQSGAEVKKPGASVKVSCKASGYTFTDYNMHWVRQAPGQRLEWIGYIVPLNGGSTFNQKFKGRATITVDTSARTAYMELSSLRSEDTAVYYCARGGTRFAYWGQGTLVTVSS
VL: DIVMTQSPDSLAVSLGERATINCRASESVDNFGVSFMYWFQQKPGQPPKLLIYGASNQGSGVPDRFSGSGSGTDFTLTISSLQAEDVAVYYCQQTKEVPYTFGGGTKVEIKR
notes: also called previously described anti-CD39 antibody (comparator)
B3: hu39.5_IGG1.AA (antibody, human IgG1, kappa, L234A L235A)
heavy: not shown
light: DTVLTQSPASLAVSPGQRATITCRASEGVKSYMHWYQQKPGQPPKLLIYKASNLASGVPARFSGSGSGTDFTLTINPVEADDTANYYCQQSWNDPTFGQGTKLEIKRTVAAPSVFIFPPSDEQLKSGTASVVCLLNNFYPREAKVQWKVDNALQSGNSQESVTEQDSKDSTYSLSSTLTLSKADYEKHKVYACEVTHQGLSSPVTKSFNRGEC
notes: humanized variant of antibody 39, human IgG1 L234A/L235A
B4: hu39.5_IGG1.AA-AF647 (antibody, human IgG1, kappa, L234A L235A)
heavy: not shown
light: B3 light
modifications: antibody conjugated to AF647 (Lightning Link kit; residues not stated)

Key:
[1] = biological target: T1, human CD39 expressed on the cell surface; assay: cell-based or functional assay
[2] = biological target: T1, human CD39 expressed on the cell surface; assay: flow cytometry on human PBMCs gated on CD19+ B cells, one donor, 0 µM ATP
[3] = biological target: T2, recombinant human CD39 (soluble); assay: cell-based or functional assay
[4] = biological target: T1, human CD39 expressed on the cell surface; assay: flow cytometry on human PBMCs gated on CD19+ B cells, one donor, 400 µM ATP
[5] = biological target: T1, human CD39 expressed on the cell surface; assay: flow cytometry on human PBMCs gated on CD19+ B cells, 0 uM ATP (N = 8)
[6] = biological target: T1, human CD39 expressed on the cell surface; assay: flow cytometry on human PBMCs gated on CD19+ B cells, 400 uM ATP (N = 6)
[7] = biological target: T3, soluble His-tagged human CD39 ECD …; assay: SPR, bivalent avidity mode (CD39 ECD immobilized, antibody analyte); Rmax 896.01 RU surface
[8] = biological target: T3, soluble His-tagged human CD39 ECD …; assay: SPR, bivalent avidity mode; average over six surface densities
[9] = biological target: T1, human CD39 expressed on the cell surface; assay: cell-based or functional assay; remark: listed apart in the source
[10] = biological target: T1, human CD39 expressed on the cell surface; assay: cell-based or functional assay; remark: listed apart in the source
[11] = biological target: T3, soluble His-tagged human CD39 ECD …; assay: SPR, monovalent affinity mode; average over seven surface densities
[12] = biological target: T1, human CD39 expressed on the cell surface; assay: competition flow cytometry on MOLP-8 cells, competitor hu39.1_IGG4.P-AF647
[13] = biological target: T1, human CD39 expressed on the cell surface; assay: flow cytometry on human PBMCs gated on CD14+ monocytes, 0 uM ATP (N = 8)
[14] = biological target: T1, human CD39 expressed on the cell surface; assay: flow cytometry on human PBMCs gated on CD14+ monocytes, 400 uM ATP (N = 6)
[15] = biological target: T3, soluble His-tagged human CD39 ECD …; assay: SPR, bivalent avidity mode (CD39 ECD immobilized, antibody analyte); Rmax 420.45 RU surface
[16] = biological target: T3, soluble His-tagged human CD39 ECD …; assay: SPR, bivalent avidity mode; average over six surface densities; average of different density surfaces; CD39 ECD immobilized
[17] = biological target: T3, soluble His-tagged human CD39 ECD …; assay: SPR, bivalent avidity mode (CD39 ECD immobilized, antibody analyte); Rmax 524.16 RU surface
[18] = biological target: T1, human CD39 expressed on the cell surface; assay: flow cytometry on whole blood of C57BL/6 hCD39KI MC38 mice treated in vivo with isotype control, with saline or oxaliplatin; signal over the IgG1.FcS-AF647 isotype control (bottom row of panels)

| Binder | IC50, CD39 enzymatic inhibition on THP-1 cells, 20 uM ATP [1] | Max Inhibition (%), THP-1 cells [1] | EC50 (read off the curve) [2] | IC50, inhibition of recombinant CD39 enzymatic activity, 20 uM ATP [3] | Max Inhibition (%), recombinant CD39, 20 uM ATP [3] | EC50 (read off the curve) [4] | EC50 [5] | EC50 [6] | IC50, CD39 enzymatic inhibition on human monocytes, 20 uM ATP [9] | Max Inhibition (%), human monocytes, 20 uM ATP [9] | IC50, CD39 enzymatic inhibition on human monocytes, 400 uM ATP [10] | Max Inhibition (%), human monocytes, 400 uM ATP [10] | Kd [11] | EC50 [13] | EC50 [14] | other results |
| --- | --- | --- | --- | --- | --- | --- | --- | --- | --- | --- | --- | --- | --- | --- | --- | --- |
| B1 | 0.53 nM | 62% | ~2 nM | 0.3 nM | 86% | ~2 nM | 1 nM | 1 nM | 1 nM | 69% | 0.7 nM | 63% | 0.19 nM |  |  | Kd [7]: 0.105 nM; Kd [8]: 0.3 nM; Max Competition [12]: -22% |
| B2 |  |  | ~0.7 nM |  |  | ~0.8 nM | 0.9 nM | 0.8 nM | 2.7 nM | 74% | 1.4 nM | 62% |  | 1 nM | 1 nM |  |
| B3 | 0.075 nM | 55% | ~0.2 nM | 0.19 nM | 80% | ~0.2 nM | 0.2 nM | 0.3 nM | 0.1 nM | 69% | 0.083 nM | 62% | 0.24 nM | 0.3 nM | 0.5 nM | Kd [15]: 0.00998 nM; Kd [16]: 0.01 nM; Kd [17]: 0.00656 nM |
| B4 |  |  |  |  |  |  |  |  |  |  |  |  |  |  |  | binding result [18]: binds |
